Results from the RNAGym collection of RNA variant scans (doi:10.7554/elife.80360).

B1: Twister Ribozyme (parent)
chain: AACACUGCCAAUGCCGGUCCCAAGCCCGGAUAAAAGUGGAGGGGGCGG

Variants of: B1
Test: self-cleavage, relative activity (ratio to wild type); higher = more cleavage; co-transcriptional
AACACUGCCAACGCCGGUCCCAAGCCCUGAUAAAAGUGGAGGGGGCGG [U12C G28U] showed a self-cleavage of 0.88.
With AACACUGCCAAAGCCCGUCCCAAGCCCGGAUAAAAGUGGAGGGGGCGG [U12A G16C] the self-cleavage was 0.688.
For AACACUGCCAAGGCCGGUCCCAAGCCCGGAUAAAAGUGGUGGGGGCGG [U12G A40U], the self-cleavage was 0.279.
In the case of AACACUGCCAAGGCCGGUCCCAAGCCCGGAUAAAAGUGGCGGGGGCGG [U12G A40C], the self-cleavage is reported as 0.261.
Work on AACACUGCCAACGCCGGUCCCAAGCCCGGAUAACAGUGGAGGGGGCGG [U12C A34C] yielded a self-cleavage of 0.382.
For AACACUGCCAACGCCGCUCCCAAGCCCGGAUAAAAGUGGAGGGGGCGG [U12C G17C], the self-cleavage was 0.0944.
For AACACUGCCAACGCCGUUCCCAAGCCCGGAUAAAAGUGGAGGGGGCGG [U12C G17U], the self-cleavage was 0.291.
In the case of AACACUGCCAAAGCCGGACCCAAGCCCGGAUAAAAGUGGAGGGGGCGG [U12A U18A], the self-cleavage is reported as 0.643.
For AACACUGCCAAAGCCGGCCCCAAGCCCGGAUAAAAGUGGAGGGGGCGG [U12A U18C], the self-cleavage was 0.623.
AACACUGCCAAAGCCGGUCCCAAGCCCCGAUAAAAGUGGAGGGGGCGG [U12A G28C] gave a self-cleavage of 1.02.
With AACACUGCCAAAGCCGGUCCCAAGCCCUGAUAAAAGUGGAGGGGGCGG [U12A G28U] the self-cleavage was 1.06.
Work on AACACUGCCAACGCCGGUCCCAAGCCCGGAUAAAUGUGGAGGGGGCGG [U12C A35U] yielded a self-cleavage of 0.91.
With AACACUGCCAACGCCGGUCCCAAGCCCGGAUAAAGGUGGAGGGGGCGG [U12C A35G] the self-cleavage was 0.837.
Variant AACACUGCCAAGGCCGGUUCCAAGCCCGGAUAAAAGUGGAGGGGGCGG [U12G C19U] has a self-cleavage of 0.998.
In the case of AACACUGCCAAACCCGGUCCCAAGCCCGGAUAAAAGUGGAGGGGGCGG [U12A G13C], the self-cleavage is reported as 0.811.
For AACACUGCCAAGGCCGGUCCCAAGCCCCGAUAAAAGUGGAGGGGGCGG [U12G G28C], the self-cleavage was 0.344.
AACACUGCCAAAGCCGGUCCCAAGCCCGGAUAAAAGUUGAGGGGGCGG [U12A G38U] showed a self-cleavage of 1.01.
AACACUGCCAAAGCCGGUCCCAAGCCCGGAUAAAAGAGGAGGGGGCGG [U12A U37A] showed a self-cleavage of 0.918.
AACACUGCCAAAGCCGGUCCCAAGCCCGGAUAAAAGCGGAGGGGGCGG [U12A U37C] showed a self-cleavage of 0.727.
For AACACUGCCAAGGCCGGUCCCCAGCCCGGAUAAAAGUGGAGGGGGCGG [U12G A22C], the self-cleavage was 1.13.
With AACACUGCCAAGGCCGGUCCCUAGCCCGGAUAAAAGUGGAGGGGGCGG [U12G A22U] the self-cleavage was 0.706.
In the case of AACACUGCCAACGCCGGUCCCAAGCCCGCAUAAAAGUGGAGGGGGCGG [U12C G29C], the self-cleavage is reported as 0.877.
In the case of AACACUGCCAACGCCGGUCCCAAGCCCGUAUAAAAGUGGAGGGGGCGG [U12C G29U], the self-cleavage is reported as 0.746.
AACACUGCCAACGCCGGUCCCAAGACCGGAUAAAAGUGGAGGGGGCGG [U12C C25A] showed a self-cleavage of 0.122.
AACACUGCCAACGCCGGUCCCAAGUCCGGAUAAAAGUGGAGGGGGCGG [U12C C25U] gave a self-cleavage of 0.736.
With AACACUGCCAACGCCGGUCACAAGCCCGGAUAAAAGUGGAGGGGGCGG [U12C C20A] the self-cleavage was 0.128.
With AACACUGCCAACGCCGGUCUCAAGCCCGGAUAAAAGUGGAGGGGGCGG [U12C C20U] the self-cleavage was 0.695.
Variant AACACUGCCAAAGCCGGUCCCAACCCCGGAUAAAAGUGGAGGGGGCGG [U12A G24C] has a self-cleavage of 0.097.
For AACACUGCCAAAGCCGGUCCCAAUCCCGGAUAAAAGUGGAGGGGGCGG [U12A G24U], the self-cleavage was 0.172.
In the case of AACACUGCCAACGCCGGUCCCAAGCCCGGAUAAAAGUGGGGGGGGCGG [U12C A40G], the self-cleavage is reported as 0.107.
For AACACUGCCAACGCCGGUCCCAAGCCCGGAUAAAAGUGGUGGGGGCGG [U12C A40U], the self-cleavage was 0.144.
Work on AACACUGCCAACGCCGGUCCCAAGCCCGGAUAAAAGUGGCGGGGGCGG [U12C A40C] yielded a self-cleavage of 0.177.
In the case of AACACUGCCAAGGCCGGUCCCAAGCCCGGAUGAAAGUGGAGGGGGCGG [U12G A32G], the self-cleavage is reported as 0.914.
Work on AACACUGCCAAGGCCGGUCCCAAGCCCGGAUCAAAGUGGAGGGGGCGG [U12G A32C] yielded a self-cleavage of 0.9.
With AACACUGCCAAGGCCGGUCCCAAGCCCGGAUUAAAGUGGAGGGGGCGG [U12G A32U] the self-cleavage was 0.958.
AACACUGCCAAAGCCGGUCCCAAGCCCGAAUAAAAGUGGAGGGGGCGG [U12A G29A] showed a self-cleavage of 1.11.
Variant AACACUGCCAAAGCCGGUCCCAAGCCCGUAUAAAAGUGGAGGGGGCGG [U12A G29U] has a self-cleavage of 1.13.
Variant AACACUGCCAAAGCCGGUCCCAAGCCCGGAUAAAAGUGGAGCGGGCGG [U12A G42C] has a self-cleavage of 0.601.
Variant AACACUGCCAAAGCCGGUCCCAAGCCCGGAUAAAAGUGGAGUGGGCGG [U12A G42U] has a self-cleavage of 0.427.
Variant AACACUGCCAAAGCCGGUCCCAAGCCCGGAUAAAAGUGGAGAGGGCGG [U12A G42A] has a self-cleavage of 0.463.
AACACUGCCAACGCCGGUGCCAAGCCCGGAUAAAAGUGGAGGGGGCGG [U12C C19G] showed a self-cleavage of 0.428.
Variant AACACUGCCAACGCCGGUACCAAGCCCGGAUAAAAGUGGAGGGGGCGG [U12C C19A] has a self-cleavage of 0.314.
In the case of AACACUGCCAAGCCCGGUCCCAAGCCCGGAUAAAAGUGGAGGGGGCGG [U12G G13C], the self-cleavage is reported as 1.05.
For AACACUGCCAAGUCCGGUCCCAAGCCCGGAUAAAAGUGGAGGGGGCGG [U12G G13U], the self-cleavage was 0.836.
Variant AACACUGCCAAGACCGGUCCCAAGCCCGGAUAAAAGUGGAGGGGGCGG [U12G G13A] has a self-cleavage of 1.14.
In the case of AACACUGCCAACGCUGGUCCCAAGCCCGGAUAAAAGUGGAGGGGGCGG [U12C C15U], the self-cleavage is reported as 1.09.
In the case of AACACUGCCAACGCCGGUCCCAAGCCCGGAUAAAAGUUGAGGGGGCGG [U12C G38U], the self-cleavage is reported as 0.781.
AACACUGCCAACGCCGGUCCCGAGCCCGGAUAAAAGUGGAGGGGGCGG [U12C A22G] gave a self-cleavage of 0.307.
AACACUGCCAACGCCGGUCCCAAGCCCGGAUAAAAGUGGAGGGGACGG [U12C G45A] showed a self-cleavage of 0.788.
In the case of AACACUGCCAAAGCCGGUCCCAAGCCCGGAUAAAAGUGGAGGGGCCGG [U12A G45C], the self-cleavage is reported as 0.643.
For AACACUGCCAAAGCCGGUCCCAAGCCCGGAUAAAAGUGGAGGGGACGG [U12A G45A], the self-cleavage was 1.09.
AACACUGCCAAGGCCGGUCCCAUGCCCGGAUAAAAGUGGAGGGGGCGG [U12G A23U] gave a self-cleavage of 0.566.
AACACUGCCAAGGCCGGUCCCACGCCCGGAUAAAAGUGGAGGGGGCGG [U12G A23C] gave a self-cleavage of 0.401.
Work on AACACUGCCAAGGCCGGUCCCAAGCCCGGCUAAAAGUGGAGGGGGCGG [U12G A30C] yielded a self-cleavage of 0.969.
